Target: recombinant GRD domain of GAPA (37 kDa GRD polypeptide) (D. discoideum)
Assay: SEC; analytical gel filtration on Sephadex G75 (SMART system) of the purified GRD domain; OD280

Substance: recombinant GRD domain of GAPA (37 kDa GRD polypeptide) (domain or fragment)
- stoichiometry N: 3

Reference: paper PMC2978108
